# Results taken from paper PMC9352680, “A comprehensive thermodynamic model for RNA binding by the Saccharomyces cerevisiae Pumilio protein PUF4”.
# T1: PUF4 RNA-binding domain (Saccharomyces cerevisiae, UniProt P25339 537-888)
# T1 sequence: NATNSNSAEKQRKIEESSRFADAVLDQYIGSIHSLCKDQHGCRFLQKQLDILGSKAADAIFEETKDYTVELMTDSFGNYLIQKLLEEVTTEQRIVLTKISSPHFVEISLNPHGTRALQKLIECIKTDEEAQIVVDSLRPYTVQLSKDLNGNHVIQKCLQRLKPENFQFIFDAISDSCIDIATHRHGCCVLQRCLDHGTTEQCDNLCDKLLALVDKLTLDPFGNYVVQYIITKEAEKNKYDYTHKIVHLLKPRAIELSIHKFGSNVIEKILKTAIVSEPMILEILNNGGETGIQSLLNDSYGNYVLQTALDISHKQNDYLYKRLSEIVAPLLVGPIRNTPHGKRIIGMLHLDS
# Target: T1, PUF4 RNA-binding domain
# Assay: Mg; RNA-MaP; 20 mM Na-HEPES pH 7.4, 30 mM KOAc, 0.75 mM MgCl2, 0.1% Tween-20, 5% glycerol, 0.1 mg/mL BSA, 2 mM DTT; 25 C; 0.0125-409.6 nM protein
# Details: tags: N-His6-TEV cleaved; C-SNAP kept, Cy3B-labelled; label: tethered on chip by stalled RNA polymerase
row,Binder,Kd [nM]
1,UCUCUUUGUAUCAUCAUCUCUU (ssRNA) [Ib_S1_P5E.1_K5.1_C5.1_H5.1_A5.1_[T6C]_F5.1_[T9C]_T5.1],15.5
2,UCUCUUUGUAUCAUAAUCUCUU (ssRNA) [Ib_S1_P5E.1_K5.1_C5.1_H5.1_A5.1_[T6C]_F5.1_[T9A]_T5.1],2.4
3,Id_ii_S2_P5E.4_K5.3_C5.2_[C-2A]_[T-1A]_H5.3_A5.1_F5.1_T5.2_[T11A] (ssRNA) RNA: UUUGAUUAAUAUGAUAUCGUUCUUUCUAAACACUUAUUAAAUUCUUUCUCGAUAUCAUAUUAAUCUUU,> 2300
4,Id_ii_S2_P5E.4_K5.3_C5.2_[T-1C]_H5.3_A5.1_F5.1_T5.2_[T11C] (ssRNA) RNA: UUUGAUUAAUAUGAUAUCGUUCUUUCUCCACACUUAUUACAUUCUUUCUCGAUAUCAUAUUAAUCUUU,> 2300
5,Id_ii_S2_P5E.4_K5.3_C5.2_[C-2A]_H5.3_A5.1_F5.1_T5.2_[T11C]_[A12C] (ssRNA) RNA: UUUGAUUAAUAUGAUAUCGUUCUUUCUAUACACUUAUUACCUUCUUUCUCGAUAUCAUAUUAAUCUUU,110
6,Id_ii_S2_P5E.4_K5.3_C5.2_[T-1A]_H5.3_A5.1_F5.1_T5.2_[T11C]_[A12C] (ssRNA) RNA: UUUGAUUAAUAUGAUAUCGUUCUUUCUCAACACUUAUUACCUUCUUUCUCGAUAUCAUAUUAAUCUUU,> 2300
7,Id_ii_S2_P5E.4_K5.3_C5.2_[T-1A]_H5.3_A5.1_F5.1_T5.2_[T11A]_[A12T] (ssRNA) RNA: UUUGAUUAAUAUGAUAUCGUUCUUUCUCAACACUUAUUAAUUUCUUUCUCGAUAUCAUAUUAAUCUUU,> 2300
8,Id_ii_S2_P5E.4_K5.3_C5.2_[T-1G]_H5.3_A5.1_F5.1_T5.2_[T11C] (ssRNA) RNA: UUUGAUUAAUAUGAUAUCGUUCUUUCUCGACACUUAUUACAUUCUUUCUCGAUAUCAUAUUAAUCUUU,> 2300
9,Id_ii_S2_P5E.4_K5.3_C5.2_[T-1C]_H5.3_A5.1_F5.1_T5.2_[T11C]_[A12C] (ssRNA) RNA: UUUGAUUAAUAUGAUAUCGUUCUUUCUCCACACUUAUUACCUUCUUUCUCGAUAUCAUAUUAAUCUUU,> 2300
10,Id_ii_S2_P5E.4_K5.3_C5.2_[C-2A]_H5.3_A5.1_F5.1_T5.2_[T11A]_[A12T] (ssRNA) RNA: UUUGAUUAAUAUGAUAUCGUUCUUUCUAUACACUUAUUAAUUUCUUUCUCGAUAUCAUAUUAAUCUUU,129
11,Id_ii_S2_P5E.4_K5.3_C5.2_[C-2A]_H5.3_A5.1_F5.1_T5.2_[A12C] (ssRNA) RNA: UUUGAUUAAUAUGAUAUCGUUCUUUCUAUACACUUAUUAUCUUCUUUCUCGAUAUCAUAUUAAUCUUU,131
12,Id_ii_S2_P5E.4_K5.3_C5.2_[C-2A]_H5.3_A5.1_F5.1_T5.2_[T11C] (ssRNA) RNA: UUUGAUUAAUAUGAUAUCGUUCUUUCUAUACACUUAUUACAUUCUUUCUCGAUAUCAUAUUAAUCUUU,136
13,Id_ii_S2_P5E.4_K5.3_C5.2_[C-2A]_H5.3_A5.1_F5.1_T5.2 (ssRNA) RNA: UUUGAUUAAUAUGAUAUCGUUCUUUCUAUACACUUAUUAUAUUCUUUCUCGAUAUCAUAUUAAUCUUU,674
14,Id_ii_S2_P5E.4_K5.3_C5.2_[C-2A]_H5.3_A5.1_F5.1_T5.2_[T11C]_[A12T] (ssRNA) RNA: UUUGAUUAAUAUGAUAUCGUUCUUUCUAUACACUUAUUACUUUCUUUCUCGAUAUCAUAUUAAUCUUU,117
15,Id_ii_S2_P5E.4_K5.3_C5.2_[T-1C]_H5.3_A5.1_F5.1_T5.2_[T11C]_[A12G] (ssRNA) RNA: UUUGAUUAAUAUGAUAUCGUUCUUUCUCCACACUUAUUACGUUCUUUCUCGAUAUCAUAUUAAUCUUU,> 2300
16,Id_ii_S2_P5E.4_K5.3_C5.2_[T-1A]_H5.3_A5.1_F5.1_T5.2_[T11C]_[A12T] (ssRNA) RNA: UUUGAUUAAUAUGAUAUCGUUCUUUCUCAACACUUAUUACUUUCUUUCUCGAUAUCAUAUUAAUCUUU,> 2300
17,Id_ii_S2_P5E.4_K5.3_C5.2_[C-2A]_H5.3_A5.1_F5.1_T5.2_[T11C]_[A12G] (ssRNA) RNA: UUUGAUUAAUAUGAUAUCGUUCUUUCUAUACACUUAUUACGUUCUUUCUCGAUAUCAUAUUAAUCUUU,674
18,Id_ii_S2_P5E.4_K5.3_C5.2_[T-1G]_H5.3_A5.1_F5.1_T5.2_[A12T] (ssRNA) RNA: UUUGAUUAAUAUGAUAUCGUUCUUUCUCGACACUUAUUAUUUUCUUUCUCGAUAUCAUAUUAAUCUUU,> 2300
19,Id_ii_S2_P5E.4_K5.3_C5.2_[C-2A]_H5.3_A5.1_F5.1_T5.2_[T11G]_[A12C] (ssRNA) RNA: UUUGAUUAAUAUGAUAUCGUUCUUUCUAUACACUUAUUAGCUUCUUUCUCGAUAUCAUAUUAAUCUUU,902
20,Id_ii_S2_P5E.4_K5.3_C5.2_[T-1C]_H5.3_A5.1_F5.1_T5.2_[T11A] (ssRNA) RNA: UUUGAUUAAUAUGAUAUCGUUCUUUCUCCACACUUAUUAAAUUCUUUCUCGAUAUCAUAUUAAUCUUU,> 2300
21,Id_ii_S2_P5E.4_K5.3_C5.2_[T-1G]_H5.3_A5.1_F5.1_T5.2_[A12C] (ssRNA) RNA: UUUGAUUAAUAUGAUAUCGUUCUUUCUCGACACUUAUUAUCUUCUUUCUCGAUAUCAUAUUAAUCUUU,> 2300

row,Binder,Kd [nM]
1,Id_ii_S2_P5E.4_K5.3_C5.2_[T-1A]_H5.3_A5.1_F5.1_T5.2_[T11C]_[A12G] (ssRNA) RNA: UUUGAUUAAUAUGAUAUCGUUCUUUCUCAACACUUAUUACGUUCUUUCUCGAUAUCAUAUUAAUCUUU,> 2300
2,Id_ii_S2_P5E.4_K5.3_C5.2_[T-1A]_H5.3_A5.1_F5.1_T5.2_[T11C] (ssRNA) RNA: UUUGAUUAAUAUGAUAUCGUUCUUUCUCAACACUUAUUACAUUCUUUCUCGAUAUCAUAUUAAUCUUU,> 2300
3,Id_ii_S2_P5E.4_K5.3_C5.2_[C-2A]_[T-1A]_H5.3_A5.1_F5.1_T5.2 (ssRNA) RNA: UUUGAUUAAUAUGAUAUCGUUCUUUCUAAACACUUAUUAUAUUCUUUCUCGAUAUCAUAUUAAUCUUU,875
4,Id_ii_S2_P5E.4_K5.3_C5.2_[T-1A]_H5.3_A5.1_F5.1_T5.2_[A12T] (ssRNA) RNA: UUUGAUUAAUAUGAUAUCGUUCUUUCUCAACACUUAUUAUUUUCUUUCUCGAUAUCAUAUUAAUCUUU,> 2300
5,Id_ii_S2_P5E.4_K5.3_C5.2_[C-2A]_H5.3_A5.1_F5.1_T5.2_[T11A]_[A12C] (ssRNA) RNA: UUUGAUUAAUAUGAUAUCGUUCUUUCUAUACACUUAUUAACUUCUUUCUCGAUAUCAUAUUAAUCUUU,161
6,Id_ii_S2_P5E.4_K5.3_C5.2_[T-1G]_H5.3_A5.1_F5.1_T5.2 (ssRNA) RNA: UUUGAUUAAUAUGAUAUCGUUCUUUCUCGACACUUAUUAUAUUCUUUCUCGAUAUCAUAUUAAUCUUU,831
7,Id_ii_S2_P5E.4_K5.3_C5.2_[T-1G]_H5.3_A5.1_F5.1_T5.2_[T11C]_[A12T] (ssRNA) RNA: UUUGAUUAAUAUGAUAUCGUUCUUUCUCGACACUUAUUACUUUCUUUCUCGAUAUCAUAUUAAUCUUU,> 2300
8,Id_ii_S2_P5E.4_K5.3_C5.2_[C-2A]_H5.3_A5.1_F5.1_T5.2_[A12T] (ssRNA) RNA: UUUGAUUAAUAUGAUAUCGUUCUUUCUAUACACUUAUUAUUUUCUUUCUCGAUAUCAUAUUAAUCUUU,97.8
9,Id_ii_S2_P5E.4_K5.3_C5.2_[T-1C]_H5.3_A5.1_F5.1_T5.2_[T11G]_[A12C] (ssRNA) RNA: UUUGAUUAAUAUGAUAUCGUUCUUUCUCCACACUUAUUAGCUUCUUUCUCGAUAUCAUAUUAAUCUUU,> 2300
10,Id_ii_S2_P5E.4_K5.3_C5.2_[T-1G]_H5.3_A5.1_F5.1_T5.2_[T11A]_[A12C] (ssRNA) RNA: UUUGAUUAAUAUGAUAUCGUUCUUUCUCGACACUUAUUAACUUCUUUCUCGAUAUCAUAUUAAUCUUU,> 2300
11,Id_ii_S2_P5E.4_K5.3_C5.2_[C-2A]_[T-1A]_H5.3_A5.1_F5.1_T5.2_[A12C] (ssRNA) RNA: UUUGAUUAAUAUGAUAUCGUUCUUUCUAAACACUUAUUAUCUUCUUUCUCGAUAUCAUAUUAAUCUUU,> 2300
12,Id_ii_S2_P5E.4_K5.3_C5.2_[C-2A]_H5.3_A5.1_F5.1_T5.2_[T11A] (ssRNA) RNA: UUUGAUUAAUAUGAUAUCGUUCUUUCUAUACACUUAUUAAAUUCUUUCUCGAUAUCAUAUUAAUCUUU,208
13,Id_ii_S2_P5E.4_K5.3_C5.2_[C-2A]_[T-1A]_H5.3_A5.1_F5.1_T5.2_[A12T] (ssRNA) RNA: UUUGAUUAAUAUGAUAUCGUUCUUUCUAAACACUUAUUAUUUUCUUUCUCGAUAUCAUAUUAAUCUUU,> 2300
14,Id_ii_S2_P5E.4_K5.3_C5.2_[T-1A]_H5.3_A5.1_F5.1_T5.2_[A12C] (ssRNA) RNA: UUUGAUUAAUAUGAUAUCGUUCUUUCUCAACACUUAUUAUCUUCUUUCUCGAUAUCAUAUUAAUCUUU,> 2300
15,Id_ii_S2_P5E.4_K5.3_C5.2_[T-1C]_H5.3_A5.1_F5.1_T5.2 (ssRNA) RNA: UUUGAUUAAUAUGAUAUCGUUCUUUCUCCACACUUAUUAUAUUCUUUCUCGAUAUCAUAUUAAUCUUU,651
16,Id_ii_S2_P5E.4_K5.3_C5.2_[T-1C]_H5.3_A5.1_F5.1_T5.2_[A12C] (ssRNA) RNA: UUUGAUUAAUAUGAUAUCGUUCUUUCUCCACACUUAUUAUCUUCUUUCUCGAUAUCAUAUUAAUCUUU,> 2300
17,Id_ii_S2_P5E.4_K5.3_C5.2_[T-1C]_H5.3_A5.1_F5.1_T5.2_[A12T] (ssRNA) RNA: UUUGAUUAAUAUGAUAUCGUUCUUUCUCCACACUUAUUAUUUUCUUUCUCGAUAUCAUAUUAAUCUUU,1720
18,Id_ii_S2_P5E.4_K5.3_C5.2_[C-2A]_H5.3_A5.1_F5.1_T5.2_[A12G] (ssRNA) RNA: UUUGAUUAAUAUGAUAUCGUUCUUUCUAUACACUUAUUAUGUUCUUUCUCGAUAUCAUAUUAAUCUUU,1310
19,UCUCUUUGUAUAAUCAUCUCUU (ssRNA) [Ic_S1_P5E.1_K5.1_C5.1_H5.1_A5.1_[T6A]_F5.1_[T9C]_T5.1],19.7
20,UCUCUUUGUUUUAUUAUCUCUU (ssRNA) [Ia_S1_P5E.1_K5.1_C5.1_H5.1_[A4T]_A5.1_F5.1_T5.1],24.7
21,UCUCUUUGUAUAAUAAUCUCUU (ssRNA) [Ib_S1_P5E.1_K5.1_C5.1_H5.1_A5.1_[T6A]_F5.1_[T9A]_T5.1],1.68
